{"source": "patent US8889619B2", "about": "(Beijing Dongfang Biotech Co., Ltd., priority 2010, dated 2014)", "molecules": {"B1": {"name": "LAX09: Exendin-4 (SEQ ID NO: 1) fused via linker SEQ ID NO: 3 to Fc fragment of human IgG2; SEQ ID NO: 4 (protein)", "chain": "HGEGTFTSDLSKQMEEEAVRLFIEWLKDGGPSSGAPPPSGGGGAGGGGVECPPCPAPPVAGPSVFLFPPKPKDTLMISRTPEVTCVVVDVSHEDPEVQFNWYVDGVEVHNAKTKPREEQFNSTFRVVSVLTVVHQDWLNGKEYKCKVSNKGLPAPIEKTISKTKGQPREPQVYTLPPSREEMTKNQVSLTCLVKGFYPSDIAVEWESNGQPENNYKTTPPMLDSDGSFFLYSKLTVDKSRWQQGNVFSCSVMHEALHNHYTQKSLSLSPGK", "modifications": "The sequence is synthesized"}, "B2": {"name": "SEQ ID NO: 13: fusion protein: peptide hormone SEQ ID NO: 14 (GLP-1A8G), linker SEQ ID NO: 3, IgG2-Fc (protein)", "chain": "AAEGTFTGDVSSYLEGQAAKEFIAWLVKGRGGGGGAGGGGVECPPCPAPPVAGPSVFLFPPKPKDTLMISRTPEVTCVVVDVSHEDPEVQFNWYVDGVEVHNAKTKPREEQFNSTFRVVSVLTVVHQDWLNGKEYKCKVSNKGLPAPIEKTISKTKGQPREPQVYTLPPSREEMTKNQVSLTCLVKGFYPSDIAVEWESNGQPENNYKTTPPMLDSDGSFFLYSKLTVDKSRWQQGNVFSCSVMHEALHNHYTQKSLSLSPGK", "modifications": "The sequence is synthesized"}, "B3": {"name": "SEQ ID NO: 15: fusion protein: peptide hormone SEQ ID NO: 16 (differs from SEQ ID NO:2 in 3 sites), linker SEQ ID NO: 3, IgG2-Fc (protein)", "chain": "HTEGTFTSDASSYLEGQACKEFIAWLVKGRGGGGAGGGGVECPPCPAPPVAGPSVFLFPPKPKDTLMISRTPEVTCVVVDVSHEDPEVQFNWYVDGVEVHNAKTKPREEQFNSTFRVVSVLTVVHQDWLNGKEYKCKVSNKGLPAPIEKTISKTKGQPREPQVYTLPPSREEMTKNQVSLTCLVKGFYPSDIAVEWESNGQPENNYKTTPPMLDSDGSFFLYSKLTVDKSRWQQGNVFSCSVMHEALHNHYTQKSLSLSPGK", "modifications": "The sequence is synthesized"}, "B4": {"name": "SEQ ID NO: 17: fusion protein: peptide hormone SEQ ID NO: 18 (differs from SEQ ID NO:2 in 3 sites), linker SEQ ID NO: 3, IgG2-Fc (protein)", "chain": "B3 chain with A10L, C19S", "modifications": "The sequence is synthesized"}, "B5": {"name": "SEQ ID NO: 19: fusion protein: peptide hormone SEQ ID NO: 20 (differs from SEQ ID NO:2 in 2 sites), linker SEQ ID NO: 3, IgG2-Fc (protein)", "chain": "B3 chain with T2A, A10L, C19I", "modifications": "The sequence is synthesized"}, "B6": {"name": "SEQ ID NO: 21: fusion protein: peptide hormone SEQ ID NO: 2 (GLP-1 (7-36) NH2), linker SEQ ID NO: 3, IgG2-Fc (protein)", "chain": "B3 chain with T2A, A10V, C19A", "modifications": "The sequence is synthesized"}, "B7": {"name": "SEQ ID NO: 5: fusion protein: peptide hormone SEQ ID NO: 6 (differs from SEQ ID NO:1 in 2 sites), linker SEQ ID NO: 3, IgG2-Fc (protein)", "chain": "B1 chain with G2T, L10A", "modifications": "The sequence is synthesized"}, "B8": {"name": "SEQ ID NO: 7: fusion protein: peptide hormone SEQ ID NO: 8 (differs from SEQ ID NO:1 in 3 sites), linker SEQ ID NO: 3, IgG2-Fc (protein)", "chain": "B1 chain with G2T, L10A, K12L", "modifications": "The sequence is synthesized"}, "B9": {"name": "SEQ ID NO: 9: fusion protein: peptide hormone SEQ ID NO: 10 (differs from SEQ ID NO:1 in 4 sites), linker SEQ ID NO: 3, IgG2-Fc (protein)", "chain": "B1 chain with G2A, L10A, K12L, Q13T", "modifications": "The sequence is synthesized"}, "B10": {"name": "SEQ ID NO: 11: fusion protein: peptide hormone SEQ ID NO: 12 (differs from SEQ ID NO:1 in 6 sites), linker SEQ ID NO: 3, IgG2-Fc (protein)", "chain": "B1 chain with G2A, L10A, K12L, Q13T, M14Y, V19C", "modifications": "The sequence is synthesized"}}, "key": {"[1]": {"test_system": "KK-Ay diabetic model mice", "assay": "Long-term administration experiment, KK-Ay diabetic model mice", "type": "in vivo, mouse", "settings": "1 mg/Kg twice per week; for Relative bioactivity: fast blood glucose decrease vs blank control relative to fusion protein of example 2, after 2 weeks", "experimental": "The drug is given twice per week, and the mice are fasted for 6 h each Wednesday and tested for fast blood glucose, meanwhile their food intake and weight variation are recorded. […] Specifically, long term administration is conducted according to the following protocol: the KK-Ay diabetic model mice are randomized into blank control group (injected only with PBS) and experimental group (injected with 1 mg/Kg of the fusion protein in Table 3). The drug is given twice per week; after 2 weeks, the mice are fasted for 6 h and tested for fasting blood glucose, and the blood glucose decrease of one experimental group is calculated by subtracting the fasting blood glucose of the experimental group from that of the blank control group."}, "[2]": {"test_system": "KK-Ay diabetic model mice", "assay": "Single injection hypoglycemic test, KK-Ay mouse obesity diabetic model", "type": "in vivo", "settings": "1 mg/Kg, single injection through caudal vein, 0-240 min, fasted 2 h"}, "human GLP-1 receptor [3]": {"target": "T1, human GLP-1 receptor (Homo sapiens, UniProt P43220)", "T1 construct": "expressed in transfected cells; host or cells: CHO (CHO-hGLP1R)", "T1 sequence (P43220 24-463)": "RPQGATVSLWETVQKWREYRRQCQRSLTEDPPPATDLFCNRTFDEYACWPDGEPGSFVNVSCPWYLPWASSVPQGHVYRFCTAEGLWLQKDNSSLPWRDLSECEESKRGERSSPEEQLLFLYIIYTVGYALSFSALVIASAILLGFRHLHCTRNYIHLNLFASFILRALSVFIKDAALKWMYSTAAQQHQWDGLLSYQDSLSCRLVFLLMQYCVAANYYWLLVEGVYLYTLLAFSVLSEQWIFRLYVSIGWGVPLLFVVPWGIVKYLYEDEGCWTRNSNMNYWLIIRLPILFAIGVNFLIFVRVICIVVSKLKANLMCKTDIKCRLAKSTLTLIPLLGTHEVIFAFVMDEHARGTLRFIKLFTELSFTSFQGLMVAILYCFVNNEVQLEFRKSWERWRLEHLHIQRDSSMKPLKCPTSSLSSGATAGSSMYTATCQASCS", "assay": "Combining (binding) test with CHO engineering cell line expressing human GLP-1R, flow cytometry", "settings": "4° C. 30 min", "experimental": "After PBS washing, human immunoglobulin γ chain antibody labeled with fluorescein FITC is added, and incubate at 4° C. for 30 min. After PBS washing, 1% paraformaldehyde in PBS is added, mix thoroughly and load the sample, read the mean fluorescence intensity of sample of each concentration in selected zone in the flow cytometry."}, "[4]": {"test_system": "KK-Ay diabetic model mice", "assay": "Oral glucose tolerance test, KK-Ay diabetic model mice", "type": "in vivo, mouse", "settings": "1 mg/Kg and 0.1 mg/Kg subcutaneously, glucose 1 mg/g by gastric tube 6 h later"}, "human GLP-1 receptor [5]": {"target": "T1, human GLP-1 receptor", "assay": "cAMP secretion test on human GLP-1 receptor CHO cell (CHO-hGLP1R)", "type": "cell-based", "settings": "for cAMP concentration: 30 min incubation, CHO-hGLP1R"}, "[6]": {"test_system": "db/db diabetic model mice", "assay": "Single injection hypoglycemic test, db/db mouse obesity diabetic model", "type": "in vivo", "settings": "1 mg/Kg and 0.1 mg/Kg groups, single injection through caudal vein, 0-240 min"}}, "note": "Changes are numbered by the printed parent chain.", "data": [{"molecule": "SEQ ID NO: 22: fusion protein: peptide hormone SEQ ID NO: 1 (Exendin-4), linker SEQ ID NO: 3, IgG4-Fc", "values": [{"measurement": "Relative bioactivity", "setting": "[1]; fasted 6 h", "result": 75, "unit": "%"}]}, {"molecule": "B1", "values": [{"measurement": "blood glucose of the mouse", "setting": "[2]", "result": "under 10 mmol/L"}, {"measurement": "Mean fluorescence intensity", "setting": "human GLP-1 receptor [3]; LAX09 mass concentration 0.098 μg/mL", "result": 14.12}, {"measurement": "Mean fluorescence intensity", "setting": "human GLP-1 receptor [3]; LAX09 mass concentration 0.246 μg/mL", "result": 17.53}, {"measurement": "Mean fluorescence intensity", "setting": "human GLP-1 receptor [3]; LAX09 mass concentration 0.614 μg/mL", "result": 21.78}, {"measurement": "Mean fluorescence intensity", "setting": "human GLP-1 receptor [3]; LAX09 mass concentration 1.536 μg/mL", "result": 38.01}, {"measurement": "Mean fluorescence intensity", "setting": "human GLP-1 receptor [3]; LAX09 mass concentration 3.84 μg/mL", "result": 57.03}, {"measurement": "Mean fluorescence intensity", "setting": "human GLP-1 receptor [3]; LAX09 mass concentration 9.6 μg/mL", "result": 81.54}, {"measurement": "Mean fluorescence intensity", "setting": "human GLP-1 receptor [3]; LAX09 mass concentration 24 μg/mL", "result": 94.81}, {"measurement": "Mean fluorescence intensity", "setting": "human GLP-1 receptor [3]; LAX09 mass concentration 60 μg/mL", "result": 121.98}, {"measurement": "food intake", "setting": "[1]", "result": "decreases"}, {"measurement": "weight", "setting": "[1]", "result": "significantly reduced"}, {"measurement": "fast blood glucose", "setting": "[1]; fasted 6 h, versus PBS group", "result": "significantly different from that of PBS group"}, {"measurement": "ability to maintain normal blood glucose (oral glucose tolerance)", "setting": "[4]", "result": "same good ability to maintain normal blood glucose"}, {"measurement": "EC50", "setting": "human GLP-1 receptor [5]; cAMP in CHO-hGLP1R cells", "result": "~4.5", "unit": "nM"}, {"measurement": "cAMP concentration", "setting": "human GLP-1 receptor [5]; drug concentration 0.01 nM", "result": 2}, {"measurement": "cAMP concentration", "setting": "human GLP-1 receptor [5]; drug concentration 0.1 nM", "result": 5}, {"measurement": "cAMP concentration", "setting": "human GLP-1 receptor [5]; drug concentration 1 nM", "result": 31}, {"measurement": "cAMP concentration", "setting": "human GLP-1 receptor [5]; drug concentration 10 nM", "result": 115}, {"measurement": "cAMP concentration", "setting": "human GLP-1 receptor [5]; drug concentration 1000 nM", "result": 153}, {"measurement": "hypoglycemic effect (blood glucose)", "setting": "[6]", "result": "best hypoglycemic effect"}]}, {"molecule": "B2", "values": [{"measurement": "Relative bioactivity", "setting": "[1]; fasted 6 h", "result": 95, "unit": "%"}]}, {"molecule": "B3", "values": [{"measurement": "Relative bioactivity", "setting": "[1]; fasted 6 h", "result": 94, "unit": "%"}]}, {"molecule": "B4", "values": [{"measurement": "Relative bioactivity", "setting": "[1]; fasted 6 h", "result": 93, "unit": "%"}]}, {"molecule": "B5", "values": [{"measurement": "Relative bioactivity", "setting": "[1]; fasted 6 h", "result": 92, "unit": "%"}]}, {"molecule": "B6", "values": [{"measurement": "Relative bioactivity", "setting": "[1]; fasted 6 h", "result": 91, "unit": "%"}]}, {"molecule": "B7", "values": [{"measurement": "Relative bioactivity", "setting": "[1]; fasted 6 h", "result": 99, "unit": "%"}]}, {"molecule": "B8", "values": [{"measurement": "Relative bioactivity", "setting": "[1]; fasted 6 h", "result": 98, "unit": "%"}]}, {"molecule": "B9", "values": [{"measurement": "Relative bioactivity", "setting": "[1]; fasted 6 h", "result": 97, "unit": "%"}]}, {"molecule": "B10", "values": [{"measurement": "Relative bioactivity", "setting": "[1]; fasted 6 h", "result": 96, "unit": "%"}]}]}
